Measurements published in patent US20190111164A1 (Boehringer Ingelheim, published 2019).
* marks the point of attachment. αGalNAc = CC(=O)N[C@@H]1[C@@H](O)[C@@H](O)[C@@H](CO)O[C@@H]1*

B1: 2F3 parent antibody (antibody, V domains shown)
VH: QITLRESGGGLVQPGGSLRLSCAASGFTFDSYAMSWVRQAPGKGLEWVSAISGSGDSTYYADSVKGRFSISRDNSKNTLYLQMNSLRAEDTAVYYCAIRREYSGYAPFDYWGQGTLVTVSS
VL: DIVMTQTPSSLSASVGDRVTITCRASQGISSWLAWYQQKPEKAPRSLIYAASSLQSGVPSRFSGSGSGTDFTLTISSLQPEDFATYYCQQYISYPYTFGQGTKLEIK
notes: Only variable domains are used here; V genes were cloned into human IgG1 (or IgG3)/kappa; also called 2F3 Original; original 2F3 parent
B2: 2F3 variant #6 (antibody, IgG1, V domains shown)
VH: QVQLLESGGGLVQPGGSLRLSCAASGFTFDSYAMSWVRQAPGKGLEWVSAISGSGASTYYADSVKGRFSISRDNSKNTLYLQMNSLRAEDTAVYYCAIRREYSGYAPFDYWGQGTLVIVSS
VL: DIVMTQTPSSLSASVGDRVTITCRASQGISSWLAWYQQKPEKAPRSLIYAASSLQSGVPSRFSGSGSGTDFTLTISSLQPEDFATYYCQQYISYPYTFGQGTKLEIK
notes: Mutant heavy chain in an IgG expression vector, co-expressed with the wild type 2F3 light chain (IgG1, kappa); also called 2F3#6; clone 6
B3: 2F3 variant #17v2 (antibody, IgG1, V domains shown)
VH: QITLRESGGGLVQPGGSLRLSCAASGFTFDSYAMSWVRQAPGKGLEWVSAISGSGHSTYYADSVKGRFSISRDNSKNTLYLQMNNLRAEDTAVYYCAIRREYSGYAPFDYWGQGTLVTVSS
VL: DIVMTQTPSSLSASVGDRVTITCRASQGISSWLAWYQQKPEKAPRSLIYAASSLQSGVPSRFSGSGSGTDFTLTISSLQPEDFATYYCQQYISYPYTFGQGTKLEIK
notes: IgG1, kappa, wild type 2F3 light chain; also called 2F3#17V2; 2F3#17v2

Key:
IgA-Pep05 [1] = target: T1, IgA-Pep05; assay: glycopeptide microarray, antibody at 50 ug/mL; spot IgA-Pep05
T1 construct: also called IgA-Pep12; IgA-Pep14
T1 peptide: H-KPSTPPTPSPSC-OH
Description: (§1) With concentrations adjusted to 100 μM in printing buffer (300 mM sodium phosphates, pH 8.5), 0.33 nL of each solution was spotted using a piezoelectric printer. The microarray was printed in spot replicates of 6. Arrays were interrogated with monoclonal anti-Tn antibodies 2F3 parent, 2F3V variant 6, or 2F3 variant 17-2 and detected with fluorescently labeled secondary antibodies and streptavidin as noted. Scanning and quantification were performed with ProScanArray scanner and ScanArray Express software (Perkin-Elmer). The assay examined a panel of ˜50 Tn glycopeptides and addressed whether spacing, number of Tn modifications, specific residues modified, or sequence context contributed to the specificity of binding by 2F3. […] Ser-Tn near free termini and multiple Ser-Tn in a single peptide increased binding. Using the 2F3 parent antibody (“parent”), Variant 6 and Variant 17, the binding of the antibodies to a panel of different glycoproteins was assayed to determine the preferred Tn context recognized by 2F3 and the 2F3G1 variants. […] Importantly, modification to Thr residues gave rise to little to no binding. […] Furthermore, binding was observed not only to peptides that contained Ser-Tn, but specifically those that were at least 5 amino acids from the attachment point to the solid matrix. Ser-Tn near free termini and multiple Ser-Tn in a single peptide increased binding.
(§2) The antibodies were applied to glycopeptide arrays at a concentration of 5 ug/mL (no data shown form this group) or 50 ug/mL (data shown in bar chart and in the table 9).

IgA-Pep05 [2] = target: T1, IgA-Pep05; assay: glycopeptide microarray, antibody at 50 ug/mL; spot IgA-Pep14
Description: as §1, §2

IgA-Pep05 [3] = target: T1, IgA-Pep05; assay: glycopeptide microarray, antibody at 50 ug/mL; spot IgA-Pep12
Description: as §1, §2

G-MUC2 = target: T2, G-MUC2 (SMILES …); assay: glycopeptide microarray, antibody at 50 ug/mL
T2 construct: also called Ac-PT*T*T*PLK-NH2
T2 peptide: Ac-PT(αGalNAc)T(αGalNAc)T(αGalNAc)PLK-NH2
Description: as §1, §2

EA2 = target: T3, EA2 (SMILES …); assay: glycopeptide microarray, antibody at 50 ug/mL
T3 construct: also called Ac-PTTDSTT*PAPTTK-NH2
T3 peptide: Ac-PTTDSTT(αGalNAc)PAPTTK-NH2
Description: as §1, §2

Peptide-5 = target: T4, Peptide-5; assay: glycopeptide microarray, antibody at 50 ug/mL
T4 construct: also called H2N-KTTTG-CONH2
T4 peptide: H-KTTTG-NH2
Description: as §1, §2

F-MUC2 = target: T5, F-MUC2 (SMILES …); assay: glycopeptide microarray, antibody at 50 ug/mL
T5 construct: also called Ac-PTT*T*PLK-NH2
T5 peptide: Ac-PTT(αGalNAc)T(αGalNAc)PLK-NH2
Description: as §1, §2

MUC1-2 = target: T6, MUC1-2 (SMILES …); assay: glycopeptide microarray, antibody at 50 ug/mL
T6 construct: also called H2N-APGS*T*APP-NH2
T6 peptide: H-APGS(αGalNAc)T(αGalNAc)APP-NH2
Description: as §1, §2

[4] = target: T7, a-Dystroglycan glycopeptide (four Tn) (SMILES …); assay: glycopeptide microarray, antibody at 50 ug/mL
T7 construct: also called Ac-PPT*T*T*T*KKP-HN2
T7 peptide: Ac-PPT(αGalNAc)T(αGalNAc)T(αGalNAc)T(αGalNAc)KKP-NH2
Description: as §1, §2

B-MUC2 = target: T8, B-MUC2 (SMILES …); assay: glycopeptide microarray, antibody at 50 ug/mL
T8 construct: also called Ac-PTT*TPLK-NH2
T8 peptide: Ac-PTT(αGalNAc)TPLK-NH2
Description: as §1, §2

MUC1-1R = target: T9, MUC1-1R; assay: glycopeptide microarray, antibody at 50 ug/mL
T9 peptide: H-TSAPDTRDAP-NH2
Description: as §1, §2

IgA-Pep08 = target: T10, IgA-Pep08 (SMILES …); assay: glycopeptide microarray, antibody at 50 ug/mL
T10 peptide: H-KTPPTPSPST(αGalNAc)PC-OH
Description: as §1, §2

C-MUC2 = target: T11, C-MUC2 (SMILES …); assay: glycopeptide microarray, antibody at 50 ug/mL
T11 construct: also called Ac-PTTT*PLK-NH2
T11 peptide: Ac-PTTT(αGalNAc)PLK-NH2
Description: as §1, §2

A-MUC2 = target: T12, A-MUC2 (SMILES …); assay: glycopeptide microarray, antibody at 50 ug/mL
T12 construct: also called Ac-PT*TTPLK-NH2
T12 peptide: Ac-PT(αGalNAc)TTPLK-NH2
Description: as §1, §2

D-MUC2 = target: T13, D-MUC2 (SMILES …); assay: glycopeptide microarray, antibody at 50 ug/mL
T13 construct: also called Ac-PT*T*TPLK-NH2
T13 peptide: Ac-PT(αGalNAc)T(αGalNAc)TPLK-NH2
Description: as §1, §2

MUC5AC = target: T14, MUC5AC (SMILES …); assay: glycopeptide microarray, antibody at 50 ug/mL
T14 peptide: H-GTTPSPVPT(αGalNAc)TSTTSAP-OH
Description: as §1, §2

Peptide-4 = target: T15, Peptide-4; assay: glycopeptide microarray, antibody at 50 ug/mL
T15 construct: also called H2N-KTTT-CONH2
T15 peptide: H-KTTT-NH2
Description: as §1, §2

IgA-Pep13 = target: T16, IgA-Pep13 (SMILES …); assay: glycopeptide microarray, antibody at 50 ug/mL
T16 construct: also called H2N-KPS*TPPT*PSPSC-OH
T16 peptide: H-KPS(αGalNAc)TPPT(αGalNAc)PSPSC-OH
Description: as §1, §2

IgA-Pep16 = target: T17, IgA-Pep16 (SMILES …); assay: glycopeptide microarray, antibody at 50 ug/mL
T17 peptide: H-KPSTPPTPS(αGalNAc)PSC-OH
Description: as §1, §2

IgA-Pep02 = target: T18, IgA-Pep02; assay: glycopeptide microarray, antibody at 50 ug/mL
T18 peptide: H-KPVPSTPPTPSC-OH
Description: as §1, §2

EA2-R = target: T19, EA2-R; assay: glycopeptide microarray, antibody at 50 ug/mL
T19 peptide: Ac-PTTDSTTPAPTTK-NH2
Description: as §1, §2

IgA-Pep10 = target: T20, IgA-Pep10; assay: glycopeptide microarray, antibody at 50 ug/mL
T20 peptide: H-KPSPSTPPTPSC-OH
Description: as §1, §2

IgA-Pep07 = target: T21, IgA-Pep07; assay: glycopeptide microarray, antibody at 50 ug/mL
T21 peptide: H-KTPPTPSPSTPC-OH
Description: as §1, §2

MUC1-2R = target: T22, MUC1-2R; assay: glycopeptide microarray, antibody at 50 ug/mL
T22 peptide: H-APGSTAPP-NH2
Description: as §1, §2

IgA-Pep03 = target: T23, IgA-Pep03 (SMILES …); assay: glycopeptide microarray, antibody at 50 ug/mL
T23 construct: also called H2N-KPVPS*TPPTPSC-OH
T23 peptide: H-KPVPS(αGalNAc)TPPTPSC-OH
Description: as §1, §2

MUC1-1 = target: T24, MUC1-1 (SMILES …); assay: glycopeptide microarray, antibody at 50 ug/mL
T24 construct: also called H2N-TSAPDT*RDAP-NH2
T24 peptide: H-TSAPDT(αGalNAc)RDAP-NH2
Description: as §1, §2

E-MUC2 = target: T25, E-MUC2 (SMILES …); assay: glycopeptide microarray, antibody at 50 ug/mL
T25 construct: also called Ac-PT*TT*PLK-NH2
T25 peptide: Ac-PT(αGalNAc)TT(αGalNAc)PLK-NH2
Description: as §1, §2

IgA-Pep18 = target: T26, IgA-Pep18 (SMILES …); assay: glycopeptide microarray, antibody at 50 ug/mL
T26 peptide: H-KPST(αGalNAc)PPTPSPSC-OH
Description: as §1, §2

[5] = target: T27, a-Dystroglycan peptide (no Tn); assay: glycopeptide microarray, antibody at 50 ug/mL
T27 construct: Unmodified control of the a-Dystroglycan glycopeptide
T27 peptide: Ac-PPTTTTKKP-NH2
Description: as §1, §2

Binder | RLU (IgA-Pep05 [1]) [RLU] | RLU (IgA-Pep05 [2]) [RLU] | RLU (IgA-Pep05 [3]) [RLU] | RLU (G-MUC2) [RLU] | RLU (EA2) [RLU] | RLU (Peptide-5) [RLU] | RLU (F-MUC2) [RLU] | RLU [4] [RLU] | RLU (MUC1-1R) [RLU] | RLU (IgA-Pep08) [RLU] | RLU (C-MUC2) [RLU] | RLU (A-MUC2) [RLU] | RLU (MUC5AC) [RLU] | RLU (Peptide-4) [RLU] | RLU (IgA-Pep02) [RLU] | RLU (EA2-R) [RLU] | RLU (IgA-Pep10) [RLU] | RLU (IgA-Pep07) [RLU] | RLU (MUC1-2R) [RLU] | RLU (MUC1-1) [RLU] | further results
B1 | 28 | 43 | 20 | 10 | 11 | 10 | 11 | 24 | 7 | 22 | 9 | 45 | 23 | 7 | 26 | 15 | 19 | 20 | 4 | 11 | RLU (MUC1-2): 33 RLU; RLU (B-MUC2): 19 RLU; RLU (D-MUC2): 12 RLU; RLU (IgA-Pep13): 40 RLU; RLU (IgA-Pep16): 115 RLU; RLU (IgA-Pep03): 58 RLU; RLU (E-MUC2): 8 RLU; RLU (IgA-Pep18): 16 RLU; RLU [5]: 37 RLU
B2 | 60 | 38 | 83 | -39 | 18 | -6 | 54 | 28 | 7 | -6 | 22 | 55 | -14 | 31 | 35 | 45 | -127 | 30 | 0 | 14 | RLU (MUC1-2): 59 RLU; RLU (B-MUC2): 23 RLU; RLU (D-MUC2): 12 RLU; RLU (E-MUC2): 27 RLU; RLU (IgA-Pep18): 22 RLU; RLU [5]: -4 RLU
B3 | 149 | 112 | 457 | 51 | 16 | 41 | 70 | 51 | 19 | 282 | 30 | 65 | 87 | 33 | 75 | 29 | 125 | 144 | 6 | 61 | RLU (E-MUC2): 87 RLU; RLU (IgA-Pep18): 174 RLU; RLU [5]: 86 RLU
